Molecular target: T1, Smc2 (S. cerevisiae condensin subunit) (S. cerevisiae, UniProt P38989 1-1170)
T1 sequence: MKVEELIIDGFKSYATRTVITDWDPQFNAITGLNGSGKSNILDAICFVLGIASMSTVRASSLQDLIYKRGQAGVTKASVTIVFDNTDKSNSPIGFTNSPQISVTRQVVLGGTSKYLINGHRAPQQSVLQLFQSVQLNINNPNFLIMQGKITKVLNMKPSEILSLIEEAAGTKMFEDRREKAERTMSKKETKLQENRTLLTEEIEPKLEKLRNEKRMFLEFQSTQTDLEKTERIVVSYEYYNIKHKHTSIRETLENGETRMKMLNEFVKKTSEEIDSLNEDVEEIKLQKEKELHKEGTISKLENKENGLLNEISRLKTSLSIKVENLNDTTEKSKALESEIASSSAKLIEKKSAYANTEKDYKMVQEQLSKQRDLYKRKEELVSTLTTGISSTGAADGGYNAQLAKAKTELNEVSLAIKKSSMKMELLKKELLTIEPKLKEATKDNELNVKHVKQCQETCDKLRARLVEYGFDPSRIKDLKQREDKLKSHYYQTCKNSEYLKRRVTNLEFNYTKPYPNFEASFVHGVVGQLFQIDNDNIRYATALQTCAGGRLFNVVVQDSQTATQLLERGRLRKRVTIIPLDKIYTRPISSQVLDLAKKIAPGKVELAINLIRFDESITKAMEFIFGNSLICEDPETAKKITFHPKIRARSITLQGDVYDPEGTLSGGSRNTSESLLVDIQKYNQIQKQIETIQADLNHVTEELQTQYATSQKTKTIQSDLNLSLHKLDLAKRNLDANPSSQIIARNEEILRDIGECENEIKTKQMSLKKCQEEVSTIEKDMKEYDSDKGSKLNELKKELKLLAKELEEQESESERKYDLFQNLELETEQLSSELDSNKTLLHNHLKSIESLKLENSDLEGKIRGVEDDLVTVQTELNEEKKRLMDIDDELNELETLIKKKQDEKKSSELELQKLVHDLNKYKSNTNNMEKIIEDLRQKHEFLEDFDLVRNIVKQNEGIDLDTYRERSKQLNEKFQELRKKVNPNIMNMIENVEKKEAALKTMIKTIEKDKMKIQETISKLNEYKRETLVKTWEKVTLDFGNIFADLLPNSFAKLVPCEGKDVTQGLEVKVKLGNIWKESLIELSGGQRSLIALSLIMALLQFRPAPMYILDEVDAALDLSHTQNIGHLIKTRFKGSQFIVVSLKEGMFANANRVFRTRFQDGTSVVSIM
Assay: cryo-EM structure

binding result: binds
B1: Ycg1 (S. cerevisiae condensin HEAT-repeat subunit) (natural protein)
chain: MQDPDGIDINTKIFNSVAEVFQKAQGSYAGHRKHIAVLKKIQSKAVEQGYEDAFNFWFDKLVTKILPLKKNEIIGDRIVKLVAAFIASLERELILAKKQNYKLTNDEEGIFSRFVDQFIRHVLRGVESPDKNVRFRVLQLLAVIMDNIGEIDESLFNLLILSLNKRIYDREPTVRIQAVFCLTKFQDEEQTEHLTELSDNEENFEATRTLVASIQNDPSAEVRRAAMLNLINDNNTRPYILERARDVNIVNRRLVYSRILKSMGRKCFDDIEPHIFDQLIEWGLEDRELSVRNACKRLIAHDWLNALDGDLIELLEKLDVSRSSVCVKAIEALFQSRPDILSKIKFPESIWKDFTVEIAFLFRAIYLYCLDNNITEMLEENFPEASKLSEHLNHYILLRYHHNDISNDSQSHFDYNTLEFIIEQLSIAAERYDYSDEVGRRSMLTVVRNMLALTTLSEPLIKIGIRVMKSLSINEKDFVTMAIEIINDIRDDDIEKQEQEEKIKSKKINRRNETSVDEEDENGTHNDEVNEDEEDDNISSFHSAVENLVQGNGNVSESDIINNLPPEKEASSATIVLCLTRSSYMLELVNTPLTENILIASLMDTLITPAVRNTAPNIRELGVKNLGLCCLLDVKLAIDNMYILGMCVSKGNASLKYIALQVIVDIFSVHGNTVVDGEGKVDSISLHKIFYKVLKNNGLPECQVIAAEGLCKLFLADVFTDDDLFETLVLSYFSPINSSNEALVQAFAFCIPVYCFSHPAHQQRMSRTAADILLRLCVLWDDLQSSVIPEVDREAMLKPNIIFQQLLFWTDPRNLVNQTGSTKKDTVQLTFLIDVLKIYAQIEKKEIKKMIITNINAIFLSSEQDYSTLKELLEYSDDIAENDNLDNVSKNALDKLRNNLNSLIEEINERSETQTKDENNTANDQYSSILGNSFNKSSNDTIEHAADITDGNNTELTKTTVNISAVDNTTEQSNSRKRTRSEAEQIDTSKNLENMSIQDTSTVAKNVSFVLPDEKSDAMSIDEEDKDSESFSEVC

— article PMC7610691 (Nature structural & molecular biology, 2020)
